# B1: 1.46.11 (antibody, V domains shown)
# VH: EVQLLESGGGLVQPGGSLRLSCAASGFTFSSYAMSWVRQAPGKGLEWVSGFSGSGFITYYADSVKGRFTISRDNSKNTLYLQMNSLRAEDTAVYYCAMPPRGYNYGPFDYWGQGTLVTVSS
# VL: SYVLTQPPSVSVAPGQTARITCGGNNIGSKSVHWYQQKPGQAPVLVVYDDSDRPSGIPERFSGSNSGNTATLTISRVEAGDEADYYCQVWDSSSDHVVFGGGTKLTVL
# notes: Fully human monoclonal antibody with a human constant region of IgG4 isotype
# B2: 1.20.15 (antibody, V domains shown)
# VH: QLQLQESGPGLVKPSETLSLTCTVSGGSISSISNYWGWIRQPPGKGLEWIGSIYYSGSTNYNPPLKSRVTISVDTTKNQFSLKLSSVTAADTAVYYCARLTYYFDYWGQGMLVTVSS
# VL: SYDLTQPPSVSVSPGQTASITCSGDKLGDKYACWYQQKPGQSPLLVIQQDSKRPSGIPARFSGSNSGNTATLTISGTQAMDEADYFCQTWDSSTVVFGGGTKLTVL
# notes: Fully human monoclonal antibody with a human constant region of IgG4 isotype; also called fully human PD-L1 antibody 1.20.15; 1.20.15-VH(30712)
# B3: 1.4.1 (antibody, V domains shown)
# VH: QLQLQESGPGLVKPSESLSLTCTVSGGSISIRTYYWGWIRQPPGTGLEWMGYIYYSGSTRYNPSLKSRVTISVDTSKNQFSLKLSSVTAADTAVYYCARLSYFFDYWGQGTLVTVSS
# VL: SYELTQPPSVSVSPGQTASITCSGDKLGDKYACWYQQKPGQSPVMVIYQDTKRPSGIPERFSGSNSGNTATLTISGTLAMDEADYYCQAWDSGTVIFGGGTKLTVL
# notes: Fully human monoclonal antibody with a human constant region of IgG4 isotype; also called fully human PD-L1 antibody 1.4.1; 1.4.1-VH(30511)
# Tests used:
# murine PD-L1 = target: T1, murine PD-L1 (mouse, UniProt Q9EP73 19-238, limits assumed); experiment: ELISA, murine PD-L1 coated on the plate, goat anti-human IgG Fc-HRP; antibody concentration not shown
# T1 construct: also called mouse PD-L1 (coated on ELISA plates)
# T1 sequence (Q9EP73 19-238 limits assumed): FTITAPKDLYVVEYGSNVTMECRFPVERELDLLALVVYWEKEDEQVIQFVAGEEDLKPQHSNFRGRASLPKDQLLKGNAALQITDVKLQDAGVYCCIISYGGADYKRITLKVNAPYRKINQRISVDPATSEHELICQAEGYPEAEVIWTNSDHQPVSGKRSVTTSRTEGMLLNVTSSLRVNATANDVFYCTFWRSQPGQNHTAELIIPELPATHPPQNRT
# Method: 3.7 Cross-species binding assay: the cross-reactivity of the Ab to cynomolgus and murine PD-L1 was measured by ELISA. Human, cyno and mouse PD-L1 were coated on ELISA plates, respectively. After blocking, fully human antibodies were added into the plate and incubated at room temperature for at least 2 hours. The binding of the antibodies to the coated antigens was detected by using goat anti-human IgG Fc-HRP. The color reaction was developed using TMB substrate and stopped by 2M HCl. The ELISA plates were analyzed at 450 nm using a Molecular Device M5e microplate reader.
# [1] = target: T2, PD-L2 expressed on transfected CHO cells (Homo sapiens (Human), UniProt Q9BQ51 20-273); experiment: FACS on PD-L2 transfected CHO-K1 cells, single bar, antibody concentration not shown
# T2 construct: also called PD-L2 of PD-1 ligand family
# T2 sequence: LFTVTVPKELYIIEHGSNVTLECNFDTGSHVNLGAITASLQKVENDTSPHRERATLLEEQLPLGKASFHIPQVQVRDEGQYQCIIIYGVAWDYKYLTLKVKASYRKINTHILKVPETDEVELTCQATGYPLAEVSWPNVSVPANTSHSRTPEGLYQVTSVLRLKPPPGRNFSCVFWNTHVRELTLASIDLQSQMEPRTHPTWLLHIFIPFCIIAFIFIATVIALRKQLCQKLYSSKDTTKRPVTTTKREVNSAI
# Method: 3.8 Cross-family binding assay by FACS: to examine the cross-family binding activity of the fully human antibodies, cells lines that express PD-L2 were stained with the fully human antibodies, followed by 2nd antibody staining with FITC conjugated goat anti-human IgG Fc. PD-L1 expressing cells were used as positive control. Corresponding parental cell lines were used as negative controls. The stained cells were analyzed by using a BD Biosciences FACSCanto II and FlowJo Version software.
# CHO cells transfected with PD-L1 or PD-L2 were stained with fully human PD-L1 antibodies and analysis by FACS.
# [2] = target: T3, full-length human PD-L1 expressed on CHO cells (human, UniProt Q9NZQ7 19-290); experiment: FACS competition on CHO cells expressing human PD-L1; competitor mouse Fc-tagged human PD-1
# T3 construct: whole, on cells; also called CHO-K1 cells expressing human PD-L1; PD-L1 transfected CHO cells
# T3 sequence (Q9NZQ7 19-290): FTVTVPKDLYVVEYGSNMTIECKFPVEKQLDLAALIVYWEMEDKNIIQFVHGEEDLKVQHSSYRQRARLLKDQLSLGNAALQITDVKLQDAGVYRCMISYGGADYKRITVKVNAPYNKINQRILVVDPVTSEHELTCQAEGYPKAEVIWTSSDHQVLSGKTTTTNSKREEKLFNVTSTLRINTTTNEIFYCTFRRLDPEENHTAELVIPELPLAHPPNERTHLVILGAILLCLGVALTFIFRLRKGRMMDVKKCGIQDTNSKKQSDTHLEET
# Method: (§1) 3.1 Competition assay by FACS: to examine whether the fully human antibodies can block the binding of PD-L1 to PD-1, the CHO-K1 cells expressing human PD-L1 were incubated with various concentrations of the fully human antibodies at 4° C. for 1 hour. The unbound antibodies were washed away, and then the mouse Fc-tagged human PD-1 was added to the cells. The binding of human PD-1 to PD-L1 expressing cell was detected by using FITC-conjugated goat anti-mouse IgG, followed by the analysis using a BD Biosciences FACSCanto II and FlowJo Version software.
# (§2) Then the mouse Fc-tagged human PD-1 was added to the cells. The binding of human PD-1 to PD-L1 expressing cell was detected by using FITC-conjugated goat anti-mouse IgG, followed by the FACS analysis.
# [3] = target: T3, full-length human PD-L1 expressed on …; experiment: FACS on CHO cells transfected with full-length human PD-L1
# [4] = target: T3, full-length human PD-L1 expressed on …; experiment: FACS competition: blocking of mouse Fc-tagged human PD-1 binding to CHO cells expressing human PD-L1
# Method: as §1, §2
# recombinant human PD-L1 = target: T4, recombinant human PD-L1 (human, UniProt Q9NZQ7 19-238, limits assumed); experiment: surface plasmon resonance per legend paragraph 39 and paragraph 188; column Best fit-KD, mol/L from the legend
# T4 construct: Used for the SPR analyte (3.2) and for the plate-coated human PD-L1 of the cross-species ELISA (3.7); also called human PD-L1 (SPR analyte); Human PD-L1 coated on ELISA plates
# T4 sequence (Q9NZQ7 19-238 limits assumed): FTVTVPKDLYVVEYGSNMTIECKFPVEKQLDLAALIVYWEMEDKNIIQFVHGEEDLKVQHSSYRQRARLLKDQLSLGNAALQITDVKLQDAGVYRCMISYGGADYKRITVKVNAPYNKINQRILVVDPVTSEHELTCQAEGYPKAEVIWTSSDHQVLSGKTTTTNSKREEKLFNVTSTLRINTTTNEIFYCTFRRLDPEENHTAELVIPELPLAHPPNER
# Text: 3.2 Affinity test by surface plasmon resonance (SPR): Antibodies were characterized for affinity and binding kinetics to PD-L1 by SPR assay using ProteOn XPR36 (Bio-Rad). Protein A protein (Sigma) was immobilized to a GLM sensor chip (Bio-Rad) through amine coupling. Purified antibodies were flowed over the sensor chip and captured by the Protein A. The chip was rotated […] and washed with running buffer (1×PBS/0.01% Tween20, Bio-Rad) until the baseline is stable. Five concentrations of human PD-L1 and running buffer were flowed against the antibody flow cell at a flow rate 100 μL/min for an association phase of 240s, followed by 600s dissociation. The chip was regenerated with pH 1.7 H₃PO₄ after each run. The association and dissociation curve was fit to a 1:1 Langmiur binding model using ProteOn software.
Binder,binding result (murine PD-L1),binding result [1],IC50 [2] [nM],EC50 (read off the curve) [3] [nM],IC50 (read off the curve) [4] [nM],Kd (recombinant human PD-L1) [nM]
B1,no binding,no binding,–,–,–,–
B2,no binding,no binding,~10,~1,~2,0.226
B3,–,no binding,–,–,–,0.478

# From patent US20250313634A1 (WUXI BIOLOGICS SHANGHAI, published 2025)
